{"source": "paper PMC6947424", "about": "“New Targeted Gold Nanorods for the Treatment of Glioblastoma by Photodynamic Therapy” (Journal of Clinical Medicine, 2019)", "key": {"[1]": {"details": "in EtOH; ref [73]; cited from earlier work", "procedure": "(§1) Fluorescence quantum yields (Φf) were determined using a tetraphenyl porphyrin (TPP) solution as the fluorescence standard (Φf = 0.11 in toluene, taking into account solvent refractive index and absorption efficiencies. For the direct determination of ^1O2 quantum yield (ΦΔ), excitation was performed with a Xe-arc, the light was separated in a SPEX 1680, 0.22 µm double monochromator. Detection at 1270 nm was carried out through a PTI S/N 1565 monochromator and the emission was monitored by a liquid nitrogen cooled Ge-detector (EO-817L, North Coast Scientific Co, OH, USA). Rose Bengal (R ..."}, "[2]": {"details": "in toluene; ref [72]; cited from earlier work", "procedure": "as §1, with “... || These findings are also consistent with the Φf value of Pyro reported by other authors (Φf = 0.3 and in methanol). […] This property can serve in the ...” for “...”"}, "[3]": {"experiment": "Singlet oxygen production (quantum yield and lifetime)", "assay_type": "physicochemical", "details": "ethanol", "procedure": "(§2) The setup and the protocol to evaluate the photophysical characterizations including the absorption, fluorescence, and singlet oxygen emission spectra in addition to the fluorescence and singlet oxygen lifetimes have been previously described by our team. The absorption spectra were recorded on a UV-3600 UV–vis double beam spectrophotometer (Shimadzu, Marne La Vallée, France) in the wavelength range of 200-800 nm. The measurements were performed on the molecules dispersed in ethanol in quartz cuvettes with an optical path of 10 mm. The fluorescence spectra were recorded on a Horiba Jobin Yvon Fluorolog-3 (FL3-222) spectrofluorimeter equipped with a 450W xenon lamp, a thermostated cell compartment (25 °C), a R928 (Hamamatsu, Massy, France) UV–vis photomultiplier and a liquid nitrogen cooled InGaAs infrared detector (DSS-16A020L Electro-Optical System Inc., Phoenixville, PA, USA). The excitation spectrometer used is a SPEX double grating monochromator (1200 grooves per mm blazed at 330 nm). The fluorescence was measured using the UV–vis detector through a SPEX double grating monochromator (600 grooves per mm blazed at 500 nm). The singlet oxygen production was measured using the IR detector through a SPEX double grating monochromator (600 grooves per mm blazed at 1 μm).\nas §1, with “(RB) was chosen as a reference solution because of its high ^1O2 quantum yield in EtOH (ΦΔ = 0.68). The absorbance value at the excitation wavelengths (412 nm) of both the reference and the sample solutions were set to approximately 0.2 by dilution. The samples were all prepared in ethanol.” for “(R ...”\nThe quantum yield of singlet oxygen production is determined by the equation (2):(2) ΦΔ=ΦΔ0×I/I0×[…] where ΦΔ and ΦΔ0, I and I0, DO and DO0 are the luminescence quantum yields of singlet oxygen, the luminescence intensities and the optical densities of the sample and reference, respectively.\n(§3) Fluorescence lifetimes were measured by Time-Correlated Single Photon Counting (TCSPC) using for excitation a pulsed laser diode LDH-P-C-405 coupled with a PDL 800-D driver (both from PicoQuant GmbH, Berlin, Germany) emitting at 408 nm (FWHM < 70 ps, 1 MHz) and an SPCM-AQR-15 avalanche photodiode (EG & G, Vaudreuil, Canada) coupled with a 650 nm (±10 nm) interference long-wave pass filter as the detection system. The acquisition system was a PicoHarp 300 module with a PHR-800 four-channel router (both from PicoQuant GmbH, Berlin, Germany). Fluorescence decays were recorded using the single photon counting method (four optical faced quartz cells for pure products in ethanol). Data were collected, and up to 1000 counts were accumulated in the maximum channel and analyzed using Fluofit TCSPC software (PicoQuant GmbH, Berlin, Germany) based on iterative reconvolution using a Levensberg-Marquandt algorithm. Singlet oxygen lifetime measurements have been performed on a TEMPRO-01 spectrophotometer (Horiba Jobin Yvon, Palaiseau, France). The apparatus was composed of a pulsed diode excitation source SpectraLED-415 emitting at 415 nm, a cuvette compartment, a Seya–Namioka type emission monochromator (600–2000 nm), and an H10330-45 near-infrared photomultiplier tube with a thermoelectric cooler (Hamamatsu, Massy, France) as the detection system. The system was monitored by a single photon counting controller FluoroHub-B and the software DataStation and DAS6 (Horiba Jobin Yvon, Palaiseau, France). […]"}, "[4]": {"experiment": "Fluorescence emission (quantum yield and lifetime)", "assay_type": "physicochemical", "details": "ethanol", "procedure": "as §2\nas §1, with “(RB) was chosen as a reference solution because of its high ^1O2 quantum yield in EtOH (ΦΔ = 0.68). The absorbance value at the excitation wavelengths (412 nm) of both the reference and the sample solutions were set to approximately 0.2 by dilution. The samples were all prepared in ethanol.” for “(R ...”\nThe quantum yield of fluorescence is determined by the equation (1):(1) Φf=Φf0×If/If0×[…]×(n/n0)^2 where Φf and Φf0, If and If0, DO and DO0, n and n0 are the quantum yields, intensities, optical densities and refraction indices of the sample and reference, respectively.\nas §3"}, "UV-vis absorption": {"experiment": "UV-vis absorption", "assay_type": "physicochemical", "details": "ethanol, Soret band", "procedure": "as §2\nThe photophysical properties at the different synthetic stages of the hybrid AuNRs@PEG-MI-K(Pyro)DKPPR-OH, including the peptide derivatives as intermediates, were studied and compared to that of free Pyro. These properties include the UV-vis absorption, the florescence emission (quantum yield (Φf) and lifetime (τf)) and the ^1O2 production (quantum yield (ΦΔ) and lifetime (τΔ)). To determine these properties, the optical density (OD) of the Soret band of the Pyro component (412 nm) was adjusted at about 0.2. Controls, such as TPP dissolved in toluene, as a standard for fluorescence emission, and RB dissolved in ethanol, as a standard for ^1O2 production, were used. Ethanol was chosen to dissolve the studied molecules since it is a convenient solvent for the detection of fluorescence and ^1O2 emission. […]"}, "[5]": {"biological_target": "T1, recombinant NRP-1 protein (neuropilin-1) (UniProt O14786 22-856)", "T1 construct": "Neuropilin-1 (NRP-1), recombinant protein bought from Bio-Techne; Coated on the ELISA plate; also called neuropilin-1 receptor; NPR-1; source: bought: Bio-Techne", "T1 sequence (looked up)": "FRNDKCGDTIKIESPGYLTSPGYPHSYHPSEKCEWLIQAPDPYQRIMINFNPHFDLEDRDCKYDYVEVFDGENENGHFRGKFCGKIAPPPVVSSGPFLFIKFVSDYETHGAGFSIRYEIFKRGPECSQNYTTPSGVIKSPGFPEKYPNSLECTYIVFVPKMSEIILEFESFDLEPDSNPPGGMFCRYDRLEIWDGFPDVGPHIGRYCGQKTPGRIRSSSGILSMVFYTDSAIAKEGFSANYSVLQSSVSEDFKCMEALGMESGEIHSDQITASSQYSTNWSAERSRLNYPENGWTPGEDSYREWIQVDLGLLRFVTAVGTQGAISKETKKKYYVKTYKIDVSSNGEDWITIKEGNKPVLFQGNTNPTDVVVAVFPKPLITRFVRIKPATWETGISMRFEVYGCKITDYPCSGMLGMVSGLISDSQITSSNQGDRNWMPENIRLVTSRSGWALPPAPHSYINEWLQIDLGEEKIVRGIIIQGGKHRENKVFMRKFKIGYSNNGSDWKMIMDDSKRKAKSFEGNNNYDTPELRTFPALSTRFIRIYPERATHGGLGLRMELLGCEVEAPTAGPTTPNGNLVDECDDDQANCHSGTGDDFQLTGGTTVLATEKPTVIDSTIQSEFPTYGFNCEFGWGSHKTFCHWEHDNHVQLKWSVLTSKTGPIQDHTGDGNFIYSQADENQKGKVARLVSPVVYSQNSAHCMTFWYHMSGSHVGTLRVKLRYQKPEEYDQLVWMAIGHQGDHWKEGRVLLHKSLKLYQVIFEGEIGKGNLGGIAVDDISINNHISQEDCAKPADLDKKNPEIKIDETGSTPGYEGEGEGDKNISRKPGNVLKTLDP", "experiment": "ELISA; competition; NRP-1 coated on 96 well plate at 2 μg/mL in PBS overnight at room temperature, blocked with PBS 0.5 % BSA; 5 ng/mL biotinylated VEGF-A165 in blocking buffer with 2 μg/mL heparin, with different peptide concentrations of competitor, 2 h at room temperature; streptavidin-HRP, OD 450 nm", "details": "both partners purified"}}, "note": "No end group written: not given here. *: point of attachment. Pyropheophorbide(a) = C=Cc1c(C)c2cc3nc(c4c5[nH]c(cc6nc(cc1[nH]2)C(C)=C6CC)c(C)c5C(=O)C4)[C@@H](CCC(=O)*)[C@@H]3C; Hexanoyl(6-maleimido) = O=C1C=CC(=O)N1CCCCCC(=O)*", "data": [{"molecule": "O=C([O-])c1c(Cl)c(Cl)c(Cl)c(Cl)c1-c1c2cc(I)c(=O)c(I)c-2oc2c(I)c([O-])c(I)cc12.[Na+].[Na+]", "note": "[Rose Bengal]", "values": [{"measurement": "ΦΔ of singlet oxygen reference", "setting": "[1]", "result": 0.68}]}, {"molecule": "C1=Cc2nc1c(-c1ccccc1)c1nc(c(-c3ccccc3)c3ccc([nH]3)c(-c3ccccc3)c3ccc([nH]3)c2-c2ccccc2)C=C1", "note": "[TPP, tetraphenyl porphyrin]", "values": [{"measurement": "Φf of fluorescence standard", "setting": "[2]", "result": 0.11}]}, {"molecule": "H-K(Pyro)DKPPR-OH [DKPPR peptide extended with Pyro-bearing lysine, free N-terminus]", "values": [{"measurement": "τΔ (singlet oxygen lifetime)", "setting": "[3]", "result": 14, "unit": "μs"}, {"measurement": "ΦΔ (singlet oxygen quantum yield)", "setting": "[3]; excitation 412 nm, detection 1270 nm, Rose Bengal as reference", "result": 0.44}, {"measurement": "τf (fluorescence lifetime)", "setting": "[4]; TCSPC, single exponential fit", "result": 6.8, "unit": "ns"}, {"measurement": "Φf (fluorescence quantum yield)", "setting": "[4]; excitation 412 nm, TPP in toluene as standard, 25 °C", "result": 0.34}, {"measurement": "λmax", "setting": "UV-vis absorption", "result": 412, "unit": "nm"}]}, {"molecule": "K(Pyropheophorbide(a))DKPPR-OH (other, not fully specified (N-terminus); printed as AuNRs@PEG-MI-K(Pyro)DKPPR-OH; also: MI joined by thioether to AuNRs@PEG-SH, KDKPPR peptide of m4, grafted through its N-terminal maleimide onto the surface of PEGylated gold nanorods; Many peptide copies on each nanorod (multivalent); 1 mg/mL of the nanorods holds 257.7 µM of peptide; also called hybrid AuNRs; functionalized AuNRs)", "note": "[AuNRs@PEG-MI-K(Pyro)DKPPR-OH]", "values": [{"measurement": "IC50", "setting": "[5]", "result": 1.1, "unit": "µM"}]}, {"molecule": "H-KDKPPR-OH (free peptide with free N-terminus (H-) and free C-terminal acid (-OH), developed by the authors' team to target NRP-1; also called free KDKPPR peptide; source: synthetic peptide)", "note": "[H-KDKPPR-OH peptide]", "values": [{"measurement": "IC50", "setting": "[5]", "result": 2, "unit": "µM"}]}, {"molecule": "{Hexanoyl(6-maleimido)}-K(Pyropheophorbide(a))DKPPR-OH (SMILES C=Cc1c(C)c2cc3nc(c4c5[nH]c(cc6nc(cc1[nH]2)C(C)=C6CC)c(C)c5C(=O)C4)[C@@H](CCC(=O)NCCCC[C@H](NC(=O)CCCCCN1C(=O)C=CC1=O)C(=O)N[C@@H](CC(=O)O)C(=O)N[C@@H](CCCCN)C(=O)N1CCC[C@H]1C(=O)N1CCC[C@H]1C(=O)N[C@@H](CCCNC(=N)N)C(=O)O)[C@@H]3C, KDKPPR peptide; first lysine bears Pyro on its side chain and MI on its alpha-amine; free C-terminal acid; also called PP-PS conjugate; peptide-photosensitizer conjugate; source: synthetic peptide (Fmoc/tBu solid phase, preparative HPLC))", "note": "[MI-K(Pyro)DKPPR-OH]", "values": [{"measurement": "IC50", "setting": "[5]", "result": 1.5, "unit": "µM"}]}]}
